T1: LRP2 CR89 Y1042W R1088D (WVWD) (Homo sapiens, UniProt P98164, R1089D/Y1043W)
T1 construct: two CR pairs from LRP2 (CR89, CR3435); made in house; host or cells: E. coli BL21(DE3) CodonPlus-RIPL, pET30(+)a
T1 sequence (P98164 1025-1102 Y1043W/R1089D): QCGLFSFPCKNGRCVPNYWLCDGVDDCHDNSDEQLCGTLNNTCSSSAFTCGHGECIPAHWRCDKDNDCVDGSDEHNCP

T2: LRP2 CR89 Y1042W V1047D R1088D (WDWD) (Homo sapiens, UniProt P98164, R1089D/V1048D/Y1043W)
T2 construct: two CR pairs from LRP2 (CR89, CR3435); made in house; host or cells: E. coli BL21(DE3) CodonPlus-RIPL, pET30(+)a
T2 sequence (P98164 1022-1105 Y1043W/V1048D/R1089D): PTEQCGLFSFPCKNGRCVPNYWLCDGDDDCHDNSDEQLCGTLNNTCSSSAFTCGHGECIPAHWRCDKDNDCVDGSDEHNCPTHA


Key:
LRP2 CR89 = biological target: T3, LRP2 CR89 (Homo sapiens, UniProt P98164); test: Solid phase binding assay
T3 construct: two CR pairs from LRP2 (CR89, CR3435); made in house; host or cells: E. coli BL21(DE3) CodonPlus-RIPL, pET30(+)a
T3 sequence (P98164 1022-1105 limits assumed): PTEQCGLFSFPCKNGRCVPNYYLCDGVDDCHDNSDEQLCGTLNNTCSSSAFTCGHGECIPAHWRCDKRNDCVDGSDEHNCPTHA
Method: All expression constructs were sequenced to verify insert sequences and the junctions with the expression vector. Each plasmid was then used to transform BL21(DE3) CodonPlus-RIPL™ cells (Stratagene). Expression of the CR proteins was induced in logarithmic growth-phase cells grown in LB supplemented with 34 μg/mL chloramphenicol, 12.5 μg/mL tetracycline and 15 μg/mL kanamycin by addition of 2 mM IPTG, followed by reduction in incubator temperature to 32° C. and incubation for 4 hours with agitation at […]. Cells were pelleted and resuspended, at 3.5% of the initial culture volume in 10 mM Tris-HCl pH 8, 100 mM NaH2PO4, 8M Urea. Resuspended cells were then frozen in liquid nitrogen, rapidly thawed to 37° C. and sonicated for 10 seconds at an amplitude setting of 60 using a Cole-Parmer CP-130 ultrasonic processor connected to a 3 mm probe. This procedure was repeated three times to effect complete lysis of the cells. Lysates were clarified by spinning twice at 10,000×g in a Sorvall RC-5 centrifuge for 20 minutes at 15° C. Ni-NTA columns (Qiagen Superflow™, 1.5 mL packed bed) were used to purify the CR proteins. Briefly, the resin was equilibrated with two column volumes of lysis buffer. The clarified lysate was then supplemented to 20 mM with imidazole and incubated with the equilibrated Ni-NTA resin overnight at 4° C. The flow-through was discarded. Columns were washed once with one column volume of lysis buffer and then three times with one column volume of TBS pH 8 supplemented with 20 mM imidazole. CR-loaded beads were then removed from the column and CR proteins eluted by incubating at room temperature for 30 minutes with one column volume of the same buffer containing 200 mM imidazole. This step was repeated once and the eluates pooled. Eluted CR protein solutions were then supplemented to 2 M urea, 10 mM CaCl2 and 5 mM DTT. Purified, denatured CR protein solutions were transferred to 3,500 MWCO Slide-A-Lyzer™ (Pierce) cassettes and sequentially dialyzed against a 200-fold excess of 50 mM Tris-HCl pH 8.5, 10 mM CaCl2, 1 mM reduced glutathione, 0.5 mM oxidized glutathione at room temperature overnight and then against TBS supplemented with 5 mM CaCl2 at 4° C. overnight. Protein concentrations were determined by Bradford assay and purity confirmed by SDS-PAGE with Coomassie Brilliant Blue staining.
(§1) Purified, refolded CR protein (1 μg) was bound to Nunc Maxisorp™ 96-well plates in TBS pH 8 supplemented with 5 mM CaCl2 (TBSC) overnight at 4° C. Wells were washed with TBSC and then blocked with TBSC containing 2% bovine serum albumin (BSA). RAP ligands were then incubated with the immobilized receptor at a range of concentrations for 2 hours in the above blocking buffer supplemented with 0.05% Tween-20 at room temperature. Control wells contained no added ligand. As an additional control, to determine whether the absence of calcium affected binding, 10 mM EGTA was included in the incubation medium for some samples. Wells were washed with TBSTC and bound ligands detected with polyclonal anti-RAP (BP41/42, 1:1,000, BioMarin). Excess primary antibody was removed and wells washed before incubation with the secondary antibody, HRP-conjugated goat anti rabbit IgG (Bio-Rad). After washing, TMB substrate solutions (Bio-Rad) were added to detect HRP. Color development was stopped with 1N HCl. Absorption at 450 nm was measured with a microplate spectrophotometer (Molecular Devices). Data were plotted and Kd values derived by non-linear regression with the assumption of single-site binding (GraphPad Prism).

[1] = biological target: T1, LRP2 CR89 Y1042W R1088D (WVWD); test: Solid phase binding assay, LRP2 CR89 mutant
From the text: (§2) Each amplified fragment was sequentially digested with BamHI and HindIII and then ligated into similarly digested pET30(+)a. The resulting plasmids encode proteins consisting of N-terminal hexahistidine and S-peptides fused to the CR fragment. Ligation reactions were transformed into XL-Blue MRF′ (Stratagene) by electroporation and plasmids isolated from single colonies. Three mutations, […], V1047D and R1088D, were introduced into the LRP2 CR89 expression plasmid both singly and in combination using Stratagene QuikChange II XL reagents and the primers: […]
as §1
(§3) One premise of this work was that amino acids at A, C, A′ and C′ within the calcium-binding loops of a CR pair were key determinants of binding affinity for RAP and would be similarly important for binding of RAP variants. To test this idea, mutant LRP2 CR89 were prepared in which the native, non-canonical residues at these positions were sequentially substituted with the non-native, canonical residues. As defined above, the A, C, A′, C′ string for LRP2 CR89 is YVWR. Mutants included LRP2 CR89 Y1042W (WVWR), LRP2 CR89 V1047D (YDWR), LRP2 CR89 R1088D (YVWD), LRP2 CR89 V1047D R1088D (YDWD), LRP2 CR89 Y1042W V1047D R1088D (WDWD), LRP2 CR89 Y1042W V1047D (WDWR), LRP2 CR89 Y1042W R1088D (WVWD). Binding to both RAP d3 and MegaRAP1 d3 were measured for each LRP2 CR89 mutant by solid-phase assay. Only the YVWD mutant retained significant binding to MegaRAP1 d3, with an approximate 2-fold loss of affinity relative to LRP2 CR89 (FIG. 6 and Table 3). […] The A′ position in LRP2 CR89 is a tryptophan, the canonical residue for wild-type RAP d3 binding, and was not mutated in our studies.

[2] = biological target: T2, LRP2 CR89 Y1042W V1047D R1088D (WDWD); test: Solid phase binding assay, LRP2 CR89 mutant
From the text: as §2, §1, §3

| binding to LRP2 CR89 (in words) (LRP2 CR89; solid-phase assay) | binding (in words) [1] | binding (in words) [2] | binding at 80 nM (in words) (LRP2 CR89; 80 nM ligand, FIG. 7) | Kd (LRP2 CR89; solid-phase assay, LRP2 CR89, read-out: apparent dissociation constant (Kd)) | Molecule |
| --- | --- | --- | --- | --- | --- |
| no significant affinity | small increase in binding | small increase in binding | – | – | RAP d3: third domain of human RAP, amino acids 201-319 of mature RAP, bacterially expressed with hexahistidine and S-peptide tags (SEQ ID NO: 92) (protein, listed as Homo sapiens, hexahistidine and S-peptide tags) LDRLRRVSHQGYSTEAEFEEPRVIDLWDLEQSANLTDKELEAFREELKHFEAKIEKHNHYQKQLEIAHEKLRHAESVGDGERVSRSREKHALLEGRTKELGYTVKKHLQDLSGRISRAR |
| – | failed to bind measurably | failed to bind measurably | bound only to LRP2 CR89 | 38 nM | MegaRAP1 d3: d3 of RAP variant selected on LRP2 CR89: S213T, E217K, H249Y, E251K, K256A, K270E (SEQ ID NO: 93) (protein, listed as Homo sapiens) LDRLRRVSHQGYSTEAEFEEPRVIDLWDLEQSANLTDKELEAFREELKHFKAKIEAHNHYQKQLEIAHEDLRHAESVGDGERVSRSREKHALLEGRTKELGYTVKKHLQDLSGRISRAR |
